Patent US20220348679A1 (MYTHIC THERAPEUTICS, published 2022)

Molecular target: T1, LRRC15 on U-87 MG (LRRC15+) cells (UniProt Q8TF66 22-581, limits assumed)
T1 construct: whole, on cells; also called cell surface LRRC15
T1 sequence (looked up): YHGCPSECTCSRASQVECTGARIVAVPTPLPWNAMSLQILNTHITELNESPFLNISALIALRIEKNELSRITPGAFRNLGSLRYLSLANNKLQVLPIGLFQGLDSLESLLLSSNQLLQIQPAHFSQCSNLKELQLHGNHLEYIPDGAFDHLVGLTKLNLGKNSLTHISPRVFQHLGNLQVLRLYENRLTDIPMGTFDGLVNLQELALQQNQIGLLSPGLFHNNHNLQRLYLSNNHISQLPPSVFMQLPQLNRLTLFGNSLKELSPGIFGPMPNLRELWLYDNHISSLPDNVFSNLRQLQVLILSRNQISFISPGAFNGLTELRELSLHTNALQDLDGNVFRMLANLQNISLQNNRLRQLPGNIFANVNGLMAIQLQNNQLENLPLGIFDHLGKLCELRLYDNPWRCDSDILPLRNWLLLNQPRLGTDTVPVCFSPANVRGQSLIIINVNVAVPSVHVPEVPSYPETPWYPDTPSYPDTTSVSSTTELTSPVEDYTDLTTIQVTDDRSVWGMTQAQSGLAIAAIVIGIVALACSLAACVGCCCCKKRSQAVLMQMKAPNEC
Assay: flow cytometry on U-87 MG (LRRC15+) cells; the text of Example 22 calls the fitted value a dissociation constant KD
Description: Binding affinity of selected LRRC15 pH engineered antibody variants from Example 9 were measured on U-87 MG (LRRC15+) cells. 100,000 U-87 MG cells (ATCC HTB-14) were seeded per well in a 96 well deep well plate. Samrotamab and a pH engineered antibody variant were serially diluted at a 1:3 dilution in ice cold FC buffer (phosphate buffered saline (PBS), pH 7.4+2 mM ethylenediaminetetraacetic acid (EDTA)+2% (v/v) HI FBS). The plates were spun at 2,000 RPM for 2 minutes, the supernatant was removed, and 100 μL of diluted antibody was added to each well with final concentration ranging from 60 nM to 1 pM and incubated for 2 hours at 4° C. Post incubation, the cells were spun at 2000 rpm for 2 min and supernatant was discarded. Cells were washed twice with 500 μL of ice-cold FC buffer and resuspended with 100 μL of FC buffer. The cells were then transferred from the deep well plate to 96 well round bottom plate, spun at 2000 rpm for 2 min and incubated with 100 μL of 10 μg/mL Alexa Fluor 488 conjugated goat anti-human IgG secondary antibody (ThermoFisher Scientific, A11013) for 30 min. Post incubation, cells were washed with FC buffer and resuspended in 100 μL of FC buffer to read on a BD Accuri C6 flow cytometer. Binding affinity was measured as a dissociation constant KD by GraphPad Prism assuming Michaelis-Menten binding kinetics.

| Binder | IC50 [nM] |
| --- | --- |
| samrotamab (antibody, V domains shown, IgG; also called MYT0963) VH: EVQLVQSGAEVKKPGASVKVSCKASGYKFSSYWIEWVKQAPGQGLEWIGEILPGSDTTNYNEKFKDRATFTSDTSINTAYMELSRLRSDDTAVYYCARDRGNYRAWFGYWGQGTLVTVSS VL: DIQMTQSPSSLSASVGDRVTITCRASQDISNYLNWYQQKPGGAVKFLIYYTSRLHSGVPSRFSGSGSGTDYTLTISSLQPEDFATYFCQQGEALPWTFGGGTKVEIK | 0.228 |
| MYT0971 (antibody, V domains shown, IgG) VH: EVQLVQSGAEVKKPGASVKVSCKASGYKFSSYHIEWVKQAPGQGLEWIGEILPGSDTTNYNEKFKDRATFTSDTSINTAYMELSRLRSDDTAVYYCARDRGNYRAWFGYWGQGTLVTVSS VL: DIQMTQSPSSLSASVGDRVTITCRASQDISNYLNWYQQKPGGAVKFLIYYTSRLHSGVPSRFSGSGSGTDYTLTISSLQPEDFATYFCQQGEALPWTFGGGTKVEIK | 0.484 |
